Numbering of substitutions follows the chain as printed. In names and notes the source's numbering stands.

The values that follow come from patent US20030186281A1, “Modified tetracycline repressor protein compositions and methods of use” (priority 2001, published 2003).

The labels stand for the following.
B1: TetRrev6-34: revTetR(BD) R94L D95A H100 (protein)
chain: MSRLDKSKVINSALELLNEVGIEGLTTRKLAQKLGVEQPTLYWHVKNKRALLDALAVEILARHHDYSLPAAGESWQSFLRNNAMSFRRALLRYLAGAKVQLGTRPDEKQYDTVETQLRFMTENGFSLRDGLYAISAVSHFTLGAVLEQQEHTAALTDRPAAPDENLPPLLREALQIMDSDDGEQAFLHGLESLIRGFEVQLTALLQIV
modifications: H100 change unspecified; Modified tetracycline repressor
notes: revTetR(BD) R94L D95A H100
B2: TetRrev19/48: revTetR(BD) N18K E19D V20L I22N E23A (protein)
chain: B1 chain with N18K, E19D, V20L, I22N, E23A, L94R, A95D, Q100H
modifications: Modified tetracycline repressor
notes: revTetR(BD) N18K E19D V20L I22N E23A
B3: TetRrev1/34: revTetR(BD) L17S E23K (protein)
chain: B1 chain with L17S, E23K, L94R, A95D, Q100H
modifications: Modified tetracycline repressor
notes: revTetR(BD) L17S E23K
B4: TetRrev4/6-15: revTetR(BD) A56S I59A L60W V99V (protein)
chain: B1 chain with A56S, I59A, L60W, L94R, A95D, Q100H
modifications: Modified tetracycline repressor
notes: revTetR(BD) A56S I59A L60W V99V
B5: TetRrev4/6-24: revTetR(BD) A61T V99R (protein)
chain: B1 chain with A61T, L94R, A95D, V99R, Q100H
modifications: Modified tetracycline repressor
notes: revTetR(BD) A61T V99R
B6: TetRrev4/6-6: revTetR(BD) D53Y V57V A61P (protein)
chain: B1 chain with D53Y, A61P, L94R, A95D, Q100H
modifications: Modified tetracycline repressor
notes: revTetR(BD) D53Y V57V A61P
B7: TetRrev4/6-10: revTetR(BD) A56S V99E (protein)
chain: B1 chain with A56S, L94R, A95D, V99E, Q100H
modifications: Modified tetracycline repressor
notes: revTetR(BD) A56S V99E
B8: TetRrev6-54: revTetR(BD) Y93F D95N V99F (protein)
chain: B1 chain with Y93F, L94R, A95N, V99F, Q100H
modifications: Modified tetracycline repressor
notes: revTetR(BD) Y93F D95N V99F
B9: TetRrev6-53: revTetR(BD) A97P K98R V99D (protein)
chain: B1 chain with L94R, A95D, A97P, K98R, V99D, Q100H
modifications: Modified tetracycline repressor
notes: revTetR(BD) A97P K98R V99D
B10: TetRrev4/6-27: revTetR(BD) V99R (protein)
chain: B1 chain with L94R, A95D, V99R, Q100H
modifications: Modified tetracycline repressor
notes: revTetR(BD) V99R
B11: TetRrev28/8: revTetR(BD) L14S N18Y I22F L25L (protein)
chain: B1 chain with L14S, N18Y, I22F, L94R, A95D, Q100H
modifications: Modified tetracycline repressor
notes: revTetR(BD) L14S N18Y I22F L25L
B12: TetRrev22/5: revTetR(BD) E15V L17A E19D (protein)
chain: B1 chain with E15V, L17A, E19D, L94R, A95D, Q100H
modifications: Modified tetracycline repressor
notes: revTetR(BD) E15V L17A E19D
B13: TetRrev4/6-4: revTetR(BD) D95A V99G V57V A61G (protein)
chain: B1 chain with A61G, L94R, V99G, Q100H
modifications: Modified tetracycline repressor
notes: revTetR(BD) D95A V99G V57V A61G
B14: TetRrev4/6-25: revTetR(BD) I59S L60L R62G D95A V99L (protein)
chain: B1 chain with I59S, R62G, L94R, V99L, Q100H
modifications: Modified tetracycline repressor
notes: revTetR(BD) I59S L60L R62G D95A V99L
B15: TetRrev4/6-3: revTetR(BD) D95A V99G (protein)
chain: B1 chain with L94R, V99G, Q100H
modifications: Modified tetracycline repressor
notes: revTetR(BD) D95A V99G
B16: TetRrev3/38: revTetR(BD) L17H I22F E23G (protein)
chain: B1 chain with L17H, I22F, E23G, L94R, A95D, Q100H
modifications: Modified tetracycline repressor
notes: revTetR(BD) L17H I22F E23G
B17: TetRrev6-51: revTetR(BD) A97T V99G (protein)
chain: B1 chain with L94R, A95D, A97T, V99G, Q100H
modifications: Modified tetracycline repressor
notes: revTetR(BD) A97T V99G
B18: TetRrev4/6-17: revTetR(BD) G99R V99L L101I (protein)
chain: B1 chain with L94R, A95D, G96R, V99L, Q100H, L101I
modifications: Modified tetracycline repressor
notes: revTetR(BD) G99R V99L L101I
B19: TetRrev4/6-7: revTetR(BD) L55L L60V A97V V99G (protein)
chain: B1 chain with L60V, L94R, A95D, A97V, V99G, Q100H
modifications: Modified tetracycline repressor
notes: revTetR(BD) L55L L60V A97V V99G
B20: TetRrev6-35: revTetR(BD) D95Y V99E (protein)
chain: B1 chain with L94R, A95Y, V99E, Q100H
modifications: Modified tetracycline repressor
notes: revTetR(BD) D95Y V99E
B21: TetRrev6-50: revTetR(BD) V99G (protein)
chain: B1 chain with L94R, A95D, V99G, Q100H
modifications: Modified tetracycline repressor
notes: revTetR(BD) V99G
B22: TetRrev6-38: revTetR(BD) Y93H G96W K98Q V99G (protein)
chain: B1 chain with Y93H, L94R, A95D, G96W, K98Q, V99G, Q100H
modifications: Modified tetracycline repressor
notes: revTetR(BD) Y93H G96W K98Q V99G
B23: TetRrev6-37-1: revTetR(BD) G96R A97S V99L (protein)
chain: B1 chain with L94R, A95D, G96R, A97S, V99L, Q100H
modifications: Modified tetracycline repressor
notes: revTetR(BD) G96R A97S V99L
B24: TetRrev4/6-5: revTetR(BD) A54S V99R (protein)
chain: B1 chain with A54S, L94R, A95D, V99R, Q100H
modifications: Modified tetracycline repressor
notes: revTetR(BD) A54S V99R
B25: TetRrev25/43: revTetR(BD) L17F E19- G24G (protein)
chain: MSRLDKSKVINSALELFNVGIEGLTTRKLAQKLGVEQPTLYWHVKNKRALLDALAVEILARHHDYSLPAAGESWQSFLRNNAMSFRRALLRYRDGAKVHLGTRPDEKQYDTVETQLRFMTENGFSLRDGLYAISAVSHFTLGAVLEQQEHTAALTDRPAAPDENLPPLLREALQIMDSDDGEQAFLHGLESLIRGFEVQLTALLQIV
modifications: Modified tetracycline repressor
notes: revTetR(BD) L17F E19- G24G

The subject of one series is tet operator sequence. The series can be described thus: β-galactosidase activity of a tetracycline-regulated promoter in transformed E. coli with revTetR, in the presence and absence of anhydrotetracycline (atc). Particulars: RevTetR isolate cultured in the absence of anhydrotetracycline (ATC). It counts as cell-based, Escherichia coli. Put shortly:
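TetR(BD) chimera mutants (TetR(B) residues 1–50, TetR(D) 51–208) expressed in E. coli regulating a tet operator-controlled lacZ. β-Galactosidase measured in Miller units at 28 °C and 37 °C with and without anhydrotetracycline; reported as percent of maximal expression without Tet repressor.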
On to B1, for which the “β-Galactosidase Activity, Cultured Without ATC” value is 85.725.
Still for that read-out and setting: next, B2: 79.9581; B3: 79.3141.
The same measure, in the same setting: next, B4: 66.054.
The same measure, in the same setting: next, B5: 95.596; B6: 67.879; B7: 97.964.
Take B8: the “β-Galactosidase Activity, Cultured Without ATC” value stood at 6.393.
Same read-out and setting: next, B9: 107.107.
Take B10: the “β-Galactosidase Activity, Cultured Without ATC” value was 108.
Still for that read-out and setting: next, B11: 98.6289; B12: 92.312; B13: 96.491.
The same measure, in the same setting: next, B14: 102.926; B15: 69.291; B16: 97.043.
On the same count and under the same terms, next, B17: 93.974; B18: 54.403.
Take B19: the “β-Galactosidase Activity, Cultured Without ATC” value is 86.036.
Still for that read-out and setting: next, B20: 74.8797; B21: 60.464.
In the case of B22, the “β-Galactosidase Activity, Cultured Without ATC” value is given as 96.194.
On the same count and under the same terms, next, B23: 55.277.
Same read-out and setting: next, B24: 97.92; B25: 99.1241.

Staying with this series, now noted: RevTetR isolate cultured in the presence of anhydrotetracycline (ATC).
With B1, the “β-Galactosidase Activity, Cultured With ATC” value is on record as 40.254.
Still for that read-out and setting: next, B2: 1.1143.
As for B3, the “β-Galactosidase Activity, Cultured With ATC” value was 0.9226.
The same measure, in the same setting: next, B4: 7.647; B5: 2.428.
Same read-out and setting: next, B6: 3.197; B7: 6.149.
On to B8, for which the “β-Galactosidase Activity, Cultured With ATC” value is listed as 1.268.
Same read-out and setting: next, B9: 27.918.
The same measure, in the same setting: next, B10: 49.
Same read-out and setting: next, B11: 4.4123.
In the case of B12, the “β-Galactosidase Activity, Cultured With ATC” value is recorded as 0.9755.
On the same count and under the same terms, next, B13: 1.639.
Still for that read-out and setting: next, B14: 3.433.
Same read-out and setting: next, B15: 0.878.
Turning to B16, the “β-Galactosidase Activity, Cultured With ATC” value came to 1.8287.
Take B17: the “β-Galactosidase Activity, Cultured With ATC” value was found to be 4.499.
With B18, the “β-Galactosidase Activity, Cultured With ATC” value is reported as 2.601.
Regarding B19, the “β-Galactosidase Activity, Cultured With ATC” value was 2.151.
The same measure, in the same setting: next, B20: 7.0255; B21: 2.469.
On the same count and under the same terms, next, B22: 46.91.
The same measure, in the same setting: next, B23: 20.04.
On to B24, for which the “β-Galactosidase Activity, Cultured With ATC” value worked out at 5.7.
In the case of B25, the “β-Galactosidase Activity, Cultured With ATC” value is reported as 1.7535.
